Results on five sequences are retold here after the Immune Epitope Database (IEDB).

Experiment [1] concerns the target HLA-A*02:01. Kind of experiment: IEDB peptide-MHC binding, purified MHC/competitive/fluorescence; filed as Kd, often an IC50 or EC50 that approximates it; ≥ and ≤ were set here for values at or beyond the usual limits of such assays.
The target of experiment [2] is HLA-A*02:12. The experiment is described as above.
Experiment [3] has as its target HLA-A*02:19. Described as above.
In experiment [4] the target is HLA-A*03:01. Described as above.
The target of experiment [5] is HLA-A*24:03. The experiment is described as above.
Experiment [6] addresses HLA-A*26:01. The description is as above.
The target of experiment [7] is HLA-A*68:02. Described as above. The following applies: source organism: Escherichia coli str. K-12 substr. W3110.
For experiment [8], the target named is HLA-A*69:01. The experiment is described as above. Particulars: source organism: Escherichia coli str. K-12 substr. W3110.
The target of experiment [9] is HLA-B*15:17. Described as above. Particulars: source organism: Escherichia coli str. K-12 substr. W3110.
For experiment [10], the target named is HLA-B*18:01. The description is as above.
Experiment [11] deals with HLA-B*27:03. Described as above.
The target of experiment [12] is HLA-B*39:01. The description is as above.
Experiment [13] addresses HLA-B*46:01. The experiment is described as above. The following applies: source organism: Escherichia coli str. K-12 substr. W3110.
The target of experiment [14] is HLA-B*51:01. The description is as above.
Experiment [15] has as its target HLA-B*57:01. The description is as above.
Experiment [16] deals with HLA-C*15:02. The experiment in a line: IEDB peptide-MHC binding, purified MHC/direct/fluorescence; filed as Kd, often an IC50 or EC50 that approximates it; ≥ and ≤ were set here for values at or beyond the usual limits of such assays. The following applies: source organism: Bacillus cereus G9241.
Experiment [17] addresses HLA-A*02:03. The experiment in a line: IEDB peptide-MHC binding, purified MHC/competitive/fluorescence; filed as Kd, often an IC50 or EC50 that approximates it; ≥ and ≤ were set here for values at or beyond the usual limits of such assays. Particulars: source organism: Bacillus cereus G9241.
Experiment [18] addresses HLA-A*01:01. The experiment in a line: IEDB peptide-MHC binding, purified MHC/direct/fluorescence; filed as Kd, often an IC50 or EC50 that approximates it; ≥ and ≤ were set here for values at or beyond the usual limits of such assays. The following applies: source organism: Reston ebolavirus - Reston.
Experiment [19] has as its target HLA-A*02:01. The experiment is described as above. Particulars: source organism: Reston ebolavirus - Reston.
The target of experiment [20] is HLA-A*02:11. Described as above. Particulars: source organism: Reston ebolavirus.
The target of experiment [21] is HLA-A*02:12. Described as above. Particulars: source organism: Reston ebolavirus.
For experiment [22], the target named is HLA-A*03:01. The experiment is described as above. Particulars: source organism: Reston ebolavirus - Reston.
In experiment [23] the target is HLA-A*23:01. The description is as above. The following applies: source organism: Reston ebolavirus.
Experiment [24] has as its target HLA-A*24:03. The experiment is described as above. The following applies: source organism: Reston ebolavirus.
Experiment [25] has as its target HLA-A*29:02. The description is as above. Particulars: source organism: Reston ebolavirus - Reston.
The target in experiment [26] is HLA-A*31:01. Described as above. Particulars: source organism: Reston ebolavirus - Reston.
Experiment [27] deals with HLA-A*68:02. The description is as above. The following applies: source organism: Reston ebolavirus.
The target in experiment [28] is HLA-A*69:01. The experiment is described as above. Particulars: source organism: Reston ebolavirus - Reston.
The target of experiment [29] is HLA-B*07:02. Described as above. Particulars: source organism: Reston ebolavirus - Reston.
The target in experiment [30] is HLA-B*15:01. The description is as above. The following applies: source organism: Reston ebolavirus - Reston.
Experiment [31] deals with HLA-B*18:01. Described as above. The following applies: source organism: Reston ebolavirus - Reston.
The target of experiment [32] is HLA-B*27:05. Described as above. The following applies: source organism: Reston ebolavirus - Reston.
In experiment [33] the target is HLA-B*39:01. The experiment is described as above. Particulars: source organism: Reston ebolavirus - Reston.
Experiment [34] addresses HLA-B*40:01. The description is as above. Particulars: source organism: Reston ebolavirus - Reston.
Experiment [35] has as its target HLA-B*44:02. The experiment is described as above. Particulars: source organism: Reston ebolavirus - Reston.
Experiment [36] has as its target HLA-B*46:01. The description is as above. The following applies: source organism: Reston ebolavirus - Reston.
In experiment [37] the target is HLA-B*48:01. Described as above. Particulars: source organism: Reston ebolavirus - Reston.
For experiment [38], the target named is HLA-B*57:01. Described as above. The following applies: source organism: Reston ebolavirus - Reston.
The target of experiment [39] is HLA-B*58:01. The experiment is described as above. Particulars: source organism: Reston ebolavirus - Reston.
Experiment [40] concerns the target HLA-B*15:01. Kind of experiment: IEDB peptide-MHC binding, purified MHC/competitive/fluorescence; filed as Kd, often an IC50 or EC50 that approximates it; ≥ and ≤ were set here for values at or beyond the usual limits of such assays. Particulars: source organism: Vibrio vulnificus CMCP6.
Experiment [41] deals with HLA-B*51:01. Kind of experiment: IEDB peptide-MHC binding, purified MHC/direct/fluorescence; filed as Kd, often an IC50 or EC50 that approximates it; ≥ and ≤ were set here for values at or beyond the usual limits of such assays. Particulars: source organism: Dengue virus 1 Singapore/S275/1990.
Experiment [42] concerns the target HLA-B*35:01. Kind of experiment: IEDB peptide-MHC binding, purified MHC/competitive/radioactivity; filed as Kd, often an IC50 or EC50 that approximates it; ≥ and ≤ were set here for values at or beyond the usual limits of such assays. Particulars: source organism: Dengue virus 4 Philippines/H241/1956.
Experiment [43] addresses HLA-B*53:01. Described as above. Particulars: source organism: Dengue virus 4 Philippines/H241/1956.
The mark [44] stands for this setting: source organism: Escherichia coli str. K-12 substr. W3110.
The mark [45] stands for this setting: source organism: Bacillus cereus G9241.
[46] abbreviates: source organism: Reston ebolavirus.
[47] abbreviates: source organism: Vibrio vulnificus CMCP6.

By Kd is commonly meant the equilibrium constant for the complex coming apart. In the case of IQFDWYPTS, the Kd in [1] (setting [44]) was at least 20 µM; in experiment [2] (setting [44]), 0.624 µM; in [3] (setting [44]) it was at least 20 µM; in experiment [4] (setting [44]), at least 20 µM; in [5] (setting [44]), at least 20 µM; in experiment [6] (setting [44]), at least 20 µM. The Kd in experiment [7], in experiment [8], in experiment [9], in experiment [10] (setting [44]), in experiment [11] (setting [44]) and in [12] (setting [44]) was at least 20 µM in each case. In addition, the Kd in experiment [13], in experiment [14] (setting [44]) and in [15] (setting [44]) was at least 20 µM throughout.
On to ITNPFFYQM, for which the dissociation constant Kd in experiment [16] is 0.056 µM; in [17] it was at least 20 µM; in experiment [4] (setting [45]) it was at least 20 µM; in [6] (setting [45]), at least 20 µM; in experiment [10] (setting [45]), at least 20 µM; in experiment [11] (setting [45]) it was at least 20 µM. In addition, the Kd was at least 20 µM in experiment [12] (setting [45]) and 0.27 µM in experiment [15] (setting [45]).
KHDFIDNPL: the dissociation constant Kd in experiment [18], in experiment [19], in experiment [20], in experiment [21], in [22] and in experiment [23] was at least 20 µM throughout. In addition, the Kd in experiment [24], in experiment [25], in [26], in experiment [27], in [28] and in experiment [29] was at least 20 µM throughout. Moreover, the Kd was at least 20 µM in experiment [30]; at least 20 µM in experiment [31]; at least 20 µM in experiment [32]; 4.89 µM in experiment [33]; at least 20 µM in experiment [34]; at least 20 µM in experiment [35]. For the same sequence, the Kd in experiment [36], in experiment [37], in experiment [38], in [39], in experiment [6] (setting [46]) and in [11] (setting [46]) was at least 20 µM each time. Besides, the Kd in experiment [14] (setting [46]) is at least 20 µM.
Regarding LMLHQQYNQ, the Kd is 0.191 µM in experiment [1] (setting [47]); 0.186 µM in [2] (setting [47]); at least 20 µM in [3] (setting [47]); at least 20 µM in [4] (setting [47]); at least 20 µM in [5] (setting [47]); at least 20 µM in experiment [6] (setting [47]). Further, the Kd in experiment [40], in experiment [10] (setting [47]), in [11] (setting [47]), in [12] (setting [47]), in [14] (setting [47]) and in [15] (setting [47]) was at least 20 µM each time.
TPFGQQRVF: the Kd was at least 20 µM in [41], 0.0474 µM in experiment [42] and 0.264 µM in [43].
